Laboratory results reported in article doi:10.1101/2023.04.12.536520, “Structural bases for the Charcot–Marie–Tooth disease induced by single amino acid substitutions of myelin protein zero” (bioRxiv, 2023).
Numbering of substitutions follows the chain as printed. In names and notes the source's numbering stands.

Key:
[1] = target: the molecule itself; assay: SEC-MALS; ECD-His injected at 52 µM; Superdex 200 Increase 10/300 GL; standard buffer (20 mM Tris-HCl pH 7.4, 100 mM NaCl); room temperature; 8-mer to monomers
[2] = target: the molecule itself; assay: SEC; free ECD or ECD-His variants; HiLoad Superdex 200 16/600 (Fig. 4A-C) or Superdex 200 Increase 10/300 (Fig. 3, Fig. S1); standard buffer (20 mM Tris-HCl pH 7.4, 100 mM NaCl); 4 °C; 8-mer to monomers

B1: human MPZ-ECD with a C-terminal histidine-tag (ECD-His), wild type (domain or fragment)
chain: MGIVVYTDREVHGAVGSRVTLHCSFWSSEWVSDDISFTWRYQPEGGRDAISIFHYAKGQPYIDEVGTFKERIQWVGDPRWKDGSIVIHNLDYSDNGTFTCDVKNPPDIVGKTSQVTLYVFEKVPTR
notes: two artificial amino acids at the N-terminus; myelin protein zero (MPZ, P0), human, extracellular domain I1 through V121; I1 is residue 30 of the precursor P25189; linker between the ECD and the His6-tag; Non-glycosylated; also called hMPZ-ECD-His; WT; not shown: His6, C-terminal, kept
With B1 the “stoichiometry N” value [1] was 8.

B2: ECD-His R45A variant (domain or fragment, human)
chain: B1 chain with R47A
notes: two artificial amino acids at the N-terminus; myelin protein zero (MPZ, P0), human, extracellular domain I1 through V121; I1 is residue 30 of the precursor P25189; linker between the ECD and the His6-tag; trans interface substitution; not shown: His6, C-terminal, kept
In the case of B2, the “stoichiometry N” value [2] is reported as 8.

B3: ECD-His D32N variant (domain or fragment, human)
chain: B1 chain with D34N
notes: two artificial amino acids at the N-terminus; myelin protein zero (MPZ, P0), human, extracellular domain I1 through V121; I1 is residue 30 of the precursor P25189; linker between the ECD and the His6-tag; CMT1B-related substitution at the head-to-head interface; the recombinant protein was non-glycosylated; not shown: His6, C-terminal, kept
In the case of B3, the “stoichiometry N” value [2] is reported as 8.

B4: ECD-His A47V variant (domain or fragment, human)
chain: B1 chain with A49V
notes: two artificial amino acids at the N-terminus; myelin protein zero (MPZ, P0), human, extracellular domain I1 through V121; I1 is residue 30 of the precursor P25189; linker between the ECD and the His6-tag; CMT2-related substitution at the trans interface; not shown: His6, C-terminal, kept
In the case of B4, the “stoichiometry N” value [2] is reported as 8.

B5: ECD-His D32G variant (domain or fragment, human)
chain: B1 chain with D34G
notes: two artificial amino acids at the N-terminus; myelin protein zero (MPZ, P0), human, extracellular domain I1 through V121; I1 is residue 30 of the precursor P25189; linker between the ECD and the His6-tag; CMT2-related substitution at the head-to-head interface; not shown: His6, C-terminal, kept
With B5 the “stoichiometry N” value [2] was 8.

B6: ECD-His D46V variant (domain or fragment, human)
chain: B1 chain with D48V
notes: as for B4
In the case of B6, the “stoichiometry N” value [2] is reported as 8.

B7: ECD-His R38A variant (domain or fragment, human)
chain: B1 chain with R40A
notes: as for B2
B7 was tested, and the “stoichiometry N” value [2] was 8.

B8: ECD-His H52R variant (domain or fragment, human)
chain: B1 chain with H54R
notes: two artificial amino acids at the N-terminus; myelin protein zero (MPZ, P0), human, extracellular domain I1 through V121; I1 is residue 30 of the precursor P25189; linker between the ECD and the His6-tag; DSS-related substitution at the trans interface; not shown: His6, C-terminal, kept
B8 was tested, and the “stoichiometry N” value [2] was 8.

B9: ECD-His E68V variant (domain or fragment, human)
chain: B1 chain with E70V
notes: two artificial amino acids at the N-terminus; myelin protein zero (MPZ, P0), human, extracellular domain I1 through V121; I1 is residue 30 of the precursor P25189; linker between the ECD and the His6-tag; CMT2-related substitution at the cis interface; not shown: His6, C-terminal, kept
With B9 the “stoichiometry N” value [2] was 8.

B10: human MPZ-ECD without a histidine-tag (ECD) (domain or fragment)
chain: MGIVVYTDREVHGAVGSRVTLHCSFWSSEWVSDDISFTWRYQPEGGRDAISIFHYAKGQPYIDEVGTFKERIQWVGDPRWKDGSIVIHNLDYSDNGTFTCDVKNPPDIVGKTSQVTLYVFEKV
notes: two artificial amino acids at the N-terminus; myelin protein zero (MPZ, P0), human, extracellular domain I1 through V121; I1 is residue 30 of the precursor P25189; Non-glycosylated; also called hMPZ-ECD
For B10, the “stoichiometry N” value [2] was 8.
